Measured values: publication PMC8699947, “Study of ALDH from Thermus thermophilus—Expression, Purification and Characterisation of the Non-Substrate Specific, Thermophilic Enzyme Displaying Both Dehydrogenase and Esterase Activity” (Cells, 2021)

B1: ALDHTt (Thermus thermophilus HB27) (protein)
chain: MRKAAGKYGNTLEFGHLVGGEEVLEGPLLERRNPSDREDVVARFPEADKDLVRKAALKAREAFAEWSRTPAPIRGQVLFNLVKILEREKPTLTRLMVREVGKTPKEAAGDVQEAIDTALFFASEGRRLYGQTVPSEMRDKELFTFRRPLGVVGIITAGNFPIAVPSWKLIPAVLTGNTVVWKPSEDAPTLSFVFAKLFEEAGLPPGVLNVVFGGGKGSTGQWMVELMDEGLFQKFAFTGSTQVGRWIGEVAGRNLIRPTLELGGKNPLVVMRDADLDLAVEGAWWSAFATGGQRCTSAGNILVDAPIYEEFKRRFLERVEATLVGNPLLHPEVTYGPFINERFFARWQEHYRVGEAEGARLLFGRGRITRENPYPRFLGDPEAGLYGWPTVWEVRPGTRLFTEEVFGPTINLVKVDGIEEAIAVANSTPYGLSSAIYTNHRHWAYLFKVGIRAGMTSINNATVGAEAHLPFGGVKASGNGGRESGIWVLEEYTYWHAVNEEYSGRLQLAQMDTGYVSPKAPTPWGEVLGL
notes: full-length, his-tagged (pET-22b(+)-ALDHTt), E. coli BL21(DE3); homotetramer with C-terminal tail

Assays:
[1] = biological target: ALDHTt, aldehyde dehydrogenase from Thermus thermophilus (Thermus thermophilus); assay: SEC; HiLoad 16/60 Superdex 200 pg, 50 mM Tris-HCl pH 7.5, 5 mM β-mercaptoethanol, 150 mM NaCl, flow rate 1 mL/min; last step of the purification; no calibration told
[2] = substrate: CCCCCC=O; assay: purified protein; details: 2 mM NAD+, 10 mM potassium phosphate pH 8, 50 °C
[3] = substrate: NC(=O)c1ccc[n+]([C@@H]2O[C@H](COP(=O)(O)OP(=O)(O)OC[C@H]3O[C@@H](n4cnc5c(N)ncnc54)[C@H](O)[C@@H]3O)[C@@H](O)[C@H]2O)c1; assay: purified protein; assay type: biochemical, Thermus thermophilus; details: 2 mM hexanal, 10 mM potassium phosphate pH 8, 50 °C, varied: cofactor
[4] = substrate: O=Cc1ccc(C=O)cc1; assay: purified protein; assay type: biochemical, Thermus thermophilus; details: 2 mM NAD+, 10 mM potassium phosphate pH 8, 50 °C
[5] = substrate: O=Cc1ccccc1; assay: purified protein; assay type: biochemical, Thermus thermophilus; details: 2 mM NAD+, 10 mM potassium phosphate pH 8, 50 °C

Molecule	stoichiometry N [1]	Km [2] [µM]	Vmax [2] [µmol/min]	kcat [2] [s⁻¹]	Km [3] [µM]	Km [4] [µM]	Vmax [4] [µmol/min]	kcat [4] [s⁻¹]	Km [5] [µM]	Vmax [5] [µmol/min]	kcat [5] [s⁻¹]
ALDHTt, aldehyde dehydrogenase from Thermus thermophilus (enzyme)	4	–	–	–	–	–	–	–	–	–	–
B1	–	990 ± 240	0.027	5.71	9.2	380 ± 110	0.047	12.1 ± 2.5	1520 ± 510	0.0057	1.46 ± 0.29
